From patent US20200207857A1 (SPARX BIOSCIENCE, published 2020) come the findings set out here.

Residue numbers refer to the chain shown, from its start.

B1: humanized anti-Claudin 18.2 antibody h5C9oao (antibody, human IgG1, kappa, V domains shown)
VH: EVQLVESGGGLVQPGGSLRLSCAVSGYTFSMNWVRQAPGKGLEWVAWINMYTGEPTYADDFKGRFTISRDDSKNTLYLQMNSLRAEDTAVYYCARLARGNSMDYWGQGTLVTVSS
VL: DIQMTQSPSSLSASVGDRVTITCKSSQSLLNSGNQKSYLTWYQQKPGKAPKLLIYWASTLESGVPSRFSGSGSGTDYTLTISSLQPEDFATYYCQNAYFFPFTFGQGTKVEIKR
B2: Anti-CLDN 18.2-5C9oae (humanized antibody h5C9oae) (antibody, human IgG1, V domains shown)
VH: B1 VH with A97Y, M102L
VL: DIQMTQSPSSLSASVGDRVTITCKSSQSLLNSGNQKSYLTWYQQKPGKAPKLLIYWASTLESGVPSRFSGSGSGTDYTLTISSLQPEDFATYYCQNAYFFPFTFGQGTKVEIK
notes: the general method uses human IgG1 constant domains
B3: h5C9o Fc mutation (antibody, V domains shown)
VH: B1 VH with A97Y, R98N, M102L
VL: B1 VL with F99S
B4: Anti-CLDN 18.2-5C9oag (humanized antibody h5C9oag) (antibody, human IgG1, V domains shown)
VH: B1 VH with M102I
VL: B2 VL with F99S
notes: as for B2
B5: Anti-CLDN 18.2-5C9oai (humanized antibody h5C9oai) (antibody, human IgG1, V domains shown)
VH: B1 VH
VL: B2 VL with F99S
notes: as for B2
B6: humanized anti-Claudin 18.2 antibody h5C9oan (antibody, human IgG1, kappa, V domains shown)
VH: B1 VH with L96S, A97S, S101G, M102F
VL: B1 VL
B7: Anti-CLDN 18.2-5C9ob (humanized antibody h5C9ob) (antibody, human IgG1, V domains shown)
VH: B1 VH with A97Y, R98N, M102L
VL: B2 VL
notes: the general method uses human IgG1 constant domains; also called CLDN18.2-h5C9ob
B8: Anti-CLDN 18.2-5C9o (humanized antibody h5C9o) (antibody, V domains shown)
VH: B1 VH with A97Y, R98N, M102L
VL: B2 VL with F99S
notes: Humanized IgG; The general method joins the variable domains to human IgG1 constant domains; Full chains are not mapped to the name; also called CLDN18.2-h5C9o
B9: Anti-CLDN 18.2-3B8 (antibody, V domains shown)
VH: EVKLVESGGGLVKPGGSLKLSCAASGFTFSSYAMSWVRQTPEKRLEWVASISSGGSTYYPDSVKGRFTISRDNARNILYLQMSSLRSEDTAMYYCASFGYDVAMDYWGQGTSVTVSS
VL: DVLMTQTPLSLPVSLGDQASISCRSSQSIVHSNGNTYLQWYLQKPGQSPKLLIYKVSNRFSGVPDRFSGSGSGTDFTLKISRVEAEDLGVYYCFQGSHVPFTFGSGTKLEIK
notes: Mouse monoclonal antibody; also called monoclonal antibody 3B8

T1 sequence (chain, as listed by the source limits assumed): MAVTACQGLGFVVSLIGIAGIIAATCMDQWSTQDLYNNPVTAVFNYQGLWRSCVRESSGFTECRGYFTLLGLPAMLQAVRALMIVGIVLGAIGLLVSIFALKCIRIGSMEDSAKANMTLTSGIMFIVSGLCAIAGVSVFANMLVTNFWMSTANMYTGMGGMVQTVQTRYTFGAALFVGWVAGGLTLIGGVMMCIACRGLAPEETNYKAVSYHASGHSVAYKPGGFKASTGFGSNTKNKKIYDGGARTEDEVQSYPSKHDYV

The first assay has as its target T1, human Claudin 18.2 (CLDN 18.2) expressed on HEK293 / HEK293T cells (human).
T1 construct: Full-length CLDN18.2 on transiently or stably transfected HEK293/HEK293T cells; also called CLD18.2
The experiment in a line: cell-based ELISA (InCell Elisa) on fixed HEK293_CLDN18.2 cells, y axis RLU; Kd table under the graph, no unit in the table, unit from the x axis log[antibody] ug/ml. Background: ELISA stands for enzyme-linked immunosorbent assay.
As for B1, the Kd (commonly the constant that tells how readily two partners part at equilibrium) was 0.154 µg/mL.
For B2, the Kd came to 0.184 µg/mL.
In the case of B3, the Kd was 0.225 µg/mL.
Same read-out and setting: in the case of B4 it was 0.191 µg/mL.
Regarding B5, the dissociation constant Kd came to 0.18 µg/mL.
Same read-out and setting: in the case of B6 it was 0.194 µg/mL; in that of B7, 0.206 µg/mL.

In another assay the target is T1, human Claudin 18.2 (CLDN 18.2) …. Kind of assay: cell-based ELISA (InCell Elisa) on fixed HEK293_CLDN18.2 cells, OD450; Kd table under the graph, no unit in the table, unit from the x axis log[antibody] ug/ml.
As to B8, binding was put at a Kd of 0.126 µg/mL.
B1 returned a Kd of 0.149 µg/mL.
Regarding B2, the Kd is 0.123 µg/mL.
B3 showed a dissociation constant (Kd) of 0.213 µg/mL.
The molecule B6 came in with an equilibrium dissociation constant (Kd) of 0.168 µg/mL.
Molecule B7 gave a Kd of 0.153 µg/mL.

For a further assay the target is unchanged. Kind of assay: flow cytometry on HEK293 cells transiently transfected with GFP and human CLDN 18.2. How it is done: After cell detachment using 2 mM EDTA/PBS cells were washed with complete growth medium and plated at approximately 1-5×10⁵ cells/well in U-bottom microtiter plates. Cells were incubated for […]. at 4° C. with monoclonal antibody 3B8 followed by three washing steps with ice cold PBS and finally incubation with Dylight 650-conjugated secondary anti-IgG antibody. Binding was assessed by flow cytometry using a BD, Accuri™ C6 Plus. Fluorescence marker expression was plotted on the horizontal axis against antibody binding on the vertical axis. Mouse antibodies 3B8 were detected to bind specifically to the surface of fluorescence marker expressing HEK293 cells (FIG. 3, cells in Q5-UR).
For orientation: In flow cytometry, cells or beads pass a laser one at a time.
In the case of B9, the EC50 (as a rule, the concentration needed to bring the measured effect to its halfway point) fell in the range of 1 to 2 µg/mL.

Another assay has the same target. Kind of assay: cell-based ELISA (InCell Elisa) on formalin-fixed HEK293_CLDN18.2 cells, OD450; Kd box under the graph, no unit in the box, unit from the x axis log[antibody] nM; the curve on HEK293T cells stays flat at about 0.1.
B8 displayed a Kd of 0.169 nM.
